Source: patent US20030003563, “Method of using a crystal of the N-terminal domain of a signal transducer and activator of transcription” (published 2003)

Legend:
[1] = molecular target: STAT-1alpha wild type (transfected, U3A cells) (Homo sapiens, UniProt P42224 P42224:2-750); assay: cell_activity; IFN-gamma 5 ng/ml, 10 h, luciferase in U3A cells; conditions: tags: pcDNA3 expression
Description: FIG. 4B show the effect of STAT-1 W37A mutation on interferon-γ (IFN-γ) stimulated gene activation in vivo. U3A cells that are lacking STAT-1 [Miller et al., EMBO J. 12:4221 (1993)] were transfected with expression clones containing either wild type or mutant STAT-1 (see Methods of the EXAMPLE, below) along with a luciferase reporter containing a tandem STAT binding site as an enhancer. After stimulation with IFN-γ for 10 hours, luciferase expression was determined spectroscopically (represented as bars). Cells transfected with the wild type protein show an about 2-fold increase in luciferase expression. […] Each bar represents ten individual parallel experiments. Error bars denote standard deviation from the mean.
Transient transfections were performed on six well plates with 50% confluent U3A cells using the calcium phosphate method as instructed by the manufacturer (Stratagene) with the following modifications. Transfection reactions contained per well 4.5 μg of either wild type STAT-1α or the W37A mutant in plasmid pcDNA3 (Invitrogen), 4 μg luciferase reporter plasmid pLuc, and 0.4 μg β-galactosidase reporter plasmid (Stratagene).
The luciferase reporter contained in its BamH1 site as an enhancer element two tandemly arranged “weak” STAT-1 binding sites (5′-[…]-3′, binding sites underlined) from the human c-fos promoter. […]

[2] = molecular target: STAT-1alpha W37A (Tyr-phosphorylated) (Homo sapiens, UniProt P42224 P42224:2-750, W37A); assay: EMSA; used to titrate active protein; conditions: tags: C-terminal 6xHis; baculovirus insect cells; chain copies: 2 (dimer; stated)
Sequence of STAT-1alpha W37A (Tyr-phosphorylated) (P42224 2-750 W37A, one chain of several): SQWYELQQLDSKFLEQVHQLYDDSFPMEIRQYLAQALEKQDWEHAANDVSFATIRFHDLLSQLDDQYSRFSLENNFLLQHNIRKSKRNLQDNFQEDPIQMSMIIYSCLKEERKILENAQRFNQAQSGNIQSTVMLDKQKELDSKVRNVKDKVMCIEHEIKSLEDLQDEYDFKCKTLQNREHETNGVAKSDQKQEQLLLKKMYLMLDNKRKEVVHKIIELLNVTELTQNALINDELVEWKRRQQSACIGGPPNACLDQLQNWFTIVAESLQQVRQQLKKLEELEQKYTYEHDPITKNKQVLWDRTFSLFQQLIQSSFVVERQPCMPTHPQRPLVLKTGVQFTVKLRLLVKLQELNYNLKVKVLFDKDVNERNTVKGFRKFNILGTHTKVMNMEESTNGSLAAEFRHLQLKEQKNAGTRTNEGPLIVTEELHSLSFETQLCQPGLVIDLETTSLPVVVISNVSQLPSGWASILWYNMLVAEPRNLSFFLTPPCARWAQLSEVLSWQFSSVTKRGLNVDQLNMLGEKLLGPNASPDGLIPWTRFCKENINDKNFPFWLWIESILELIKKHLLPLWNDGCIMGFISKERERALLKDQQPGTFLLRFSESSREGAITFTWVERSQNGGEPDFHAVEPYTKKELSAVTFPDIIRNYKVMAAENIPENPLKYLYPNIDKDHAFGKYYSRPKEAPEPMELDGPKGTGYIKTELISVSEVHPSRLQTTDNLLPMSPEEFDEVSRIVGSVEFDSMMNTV
Description: (§1) Gel shift experiments and determination of tetramer stability were done as described [Vinkemeier et al., EMBO J. 15:5616 (1996)] with an oligonucleotide containing two copies of the STAT recognition element from the c-fos gene [Wagner et al., EMBO J. 9:4477 (1990)] spaced by 10 base pairs (5′-[…]-3′). Both protein preparations (Tyr-phosphorylated wild type STAT-1α and W37A mutant) were titrated in gel shift experiments with an oligonucleotide containing a single M67 site (5′-[…]-3′) [Wagner et al., EMBO J. 9:4477 (1990)] to assure similar loading of active protein. […] The time necessary to reach equilibrium was assessed by EMSA [(Stone et al., in Jost, J. P. & Saluz, H. P. (eds.) A Laboratory Guide to In Vitro Studies of Protein-DNA Interactions BioMethods, vol.5:163-195 (1991)]. For all DNA fragments tested, equilibrium turned out to be fully established at the earliest timepoint that can be determined by this technique (30 sec). Therefore incubation periods of 5-15 minutes were chosen. Reaction products were loaded onto a 4% polyacrylamide gel (1.5 mm thick) containing 0.25× Tris-borate-EDTA which had been pre-run at 20V/cm for 2 hours at 4° C. Electrophoresis was continued for 60 minutes at 4° C. Gels were dried and exposed to X-ray film and quantitated by a Molecular Dynamics Phospholmager.

[3] = molecular target: STAT-1alpha (Tyr-phosphorylated, wild type) (Homo sapiens, UniProt P42224 P42224:2-750); assay: EMSA; used to titrate active protein; conditions: tags: in vitro Tyr-phosphorylated with EGF-receptor kinase; chain copies: 4 (two dimers on tandem site; stated)
Sequence of STAT-1alpha (Tyr-phosphorylated, wild type) (P42224 2-750, one chain of several): as the sequence (P42224 2-750 W37A, one chain of several) above, with A36W counted along it
Description: as §1

Sequence of STAT-1alpha wild type (transfected, U3A cells) (P42224 2-750, one chain of several): as the sequence (P42224 2-750 W37A, one chain of several) above, with A36W counted along it

| Binder | activity [1] [fold induction] | binding result [2] | binding result [3] |
| --- | --- | --- | --- |
| luciferase reporter enhancer with two weak STAT-1 sites (dsDNA) DNA 1: GATCAGTTCCCGTCAATCATGATCCAGTTCCCGTCAATGATCCCCGGGATC DNA 2: GATCCCGGGGATCATTGACGGGAACTGGATCATGATTGACGGGAACTGATC | ~2 |  |  |
| single M67 site (dsDNA) DNA 1: GCCGATTTCCCGTAAATCAT DNA 2: ATGATTTACGGGAAATCGGC |  | binds | binds |
